Laboratory results from patent publication US20140011213A1.

Molecular target: BAP-CD59a reporter, biotinylated in vitro by BirA (on CHO-S cells) (mouse)
Assay: FACS; CHO-S transfected with BAP-CD59a, incubated with BirA and stained with F-SA (non-transfected stained control MFI-69)

BAP-CD59a reporter, biotinylated in vitro by BirA (on CHO-S cells) (mouse), sequence (chain, as listed by the source): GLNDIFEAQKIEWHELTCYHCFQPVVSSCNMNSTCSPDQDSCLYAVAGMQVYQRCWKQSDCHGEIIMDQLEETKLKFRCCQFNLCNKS

R-Phycoerythrin-conjugated Streptavidin (from UniProt P22629 37-163)
MFI: 24400
